Measurements from PMC4198130, “Protein Interactions of the Vesicular Glutamate Transporter VGLUT1” (PLoS ONE, 2014).
One block for each binder: values may come before it.

Legend:
[1] = molecular target: T1, GST fusion of the SH3 domain of Fyn (SH3 domain array) (human, UniProt P06241 82-143); experiment: peptide or protein array; TranSignal SH3 and WW Domain Arrays (Panomics/Affymetrix): purified GST fusions of human SH3 or WW domains immobilised on a membrane, in duplicate at 100 ng; His-PP1 in solution, detected with anti-His antibody (methods: purified His-PP1; results and legend: bacterial extract with the tagged protein); details: both partners purified
T1 construct: Fyn, human, SH3 domain; source: bought: Panomics/Affymetrix TranSignal SH3 Domain Array (purified GST fusion on a membrane)

GST-Lyn-SH3 (Panomics) [2] = molecular target: T2, GST-Lyn-SH3 (Panomics) (human, UniProt P07948 63-123); experiment: as above; details: both partners purified
T2 construct: Lyn, human, SH3 domain; also called SH3 domain of Lyn; source: bought: Panomics (purified GST-Lyn-SH3 protein; also on the TranSignal SH3 Domain Array)

[3] = molecular target: GST fusion of the SH3 domain of Src (SH3 domain array) (human, UniProt P12931 84-145); experiment: as above; details: both partners purified
[4] = molecular target: T3, GST fusion of the SH3 domain of Hck (SH3 domain array) (human, UniProt P08631 78-138); experiment: as above; details: both partners purified
T3 construct: Hck, human, SH3 domain; source: bought: Panomics/Affymetrix TranSignal SH3 Domain Array (purified GST fusion on a membrane)

[5] = molecular target: T4, GST fusion of the SH3 domain of sorting nexin 9 (Panomics) (human, UniProt Q9Y5X1 1-62); experiment: as above; details: both partners purified
T4 construct: sorting nexin 9, human, SH3 domain; also called SNX9; source: bought: Panomics/Affymetrix (on the TranSignal SH3 Domain Array; GST fusion for pull-down)

[6] = molecular target: T5, GST fusion of the SH3 domain of EPS8 (Panomics) (human, UniProt Q12929 531-590); experiment: as above; details: both partners purified
T5 construct: EPS8, human, SH3 domain; source: bought: Panomics/Affymetrix (on the TranSignal SH3 Domain Array; GST fusion for pull-down)

GST-Lyn-SH3 (Panomics) [7] = molecular target: T2, GST-Lyn-SH3 (Panomics); experiment: pull-down; GST fusions of SH3 or WW domains on glutathione sepharose beads, incubated with detergent-solubilized (2% TX-100) rat brain extract, RT 60 min; bound VGLUT1 by immunoblot, band intensity normalised to lysate; details: one partner purified
[8] = molecular target: T6, GST fusion of the second SH3 domain of Nck1 (human, UniProt P16333 106-165); experiment: as above; details: one partner purified
T6 construct: Nck1, human, second SH3 domain (D2); also called Nck1 D2

[9] = molecular target: T7, GST fusion of the third SH3 domain of Nck1 (human, UniProt P16333 190-252); experiment: as above; details: one partner purified
T7 construct: Nck1, human, third SH3 domain (D3); also called Nck1 D3

[10] = molecular target: T8, GST fusion of the first SH3 domain of Nck2 (human, UniProt O43639 2-61); experiment: as above; details: one partner purified
T8 construct: Nck2, human, first SH3 domain (D1); also called Nck2 D1

[11] = molecular target: T9, GST fusion of the SH3 domain of human Lyn (pGEX, from Clifford Lowell) (human, UniProt P07948 63-123); experiment: as above; details: one partner purified
T9 construct: Lyn, human, SH3 domain; That the pGEX constructs from C; also called GST-Lyn

[12] = molecular target: T10, GST fusion of the SH3 domain of human Fyn (pGEX, from Clifford Lowell) (human, UniProt P06241 82-143); experiment: as above; details: one partner purified
T10 construct: Fyn, human, SH3 domain; also called GST-Fyn
T10 sequence (P06241 82-143): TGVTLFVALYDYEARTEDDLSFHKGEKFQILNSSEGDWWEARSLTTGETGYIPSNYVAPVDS

T2 sequence (P07948 63-123): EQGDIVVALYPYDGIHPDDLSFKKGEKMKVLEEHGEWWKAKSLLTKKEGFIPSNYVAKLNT
T3 sequence (P08631 78-138): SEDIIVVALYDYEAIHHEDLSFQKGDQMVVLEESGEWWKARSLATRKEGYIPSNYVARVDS
T4 sequence (Q9Y5X1 1-62): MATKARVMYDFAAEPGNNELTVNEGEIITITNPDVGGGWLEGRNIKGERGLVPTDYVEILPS
T5 sequence (Q12929 531-590): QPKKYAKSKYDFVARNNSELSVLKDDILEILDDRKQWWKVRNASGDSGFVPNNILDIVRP
T8 sequence (O43639 2-61): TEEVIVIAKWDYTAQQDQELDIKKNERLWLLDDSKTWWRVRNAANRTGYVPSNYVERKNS
T1 sequence (P06241 82-143): as the sequence (P06241 82-143) above
T9 sequence (P07948 63-123): as the sequence (P07948 63-123) above

binding result [1]: binds
binding result (GST-Lyn-SH3 (Panomics) [2]): binds
binding result [3]: binds
binding result [4]: binds
binding result [5]: binds
binding result [6]: binds
B1: His-tagged VGLUT1 C-terminal peptide (amino acids 513-549) (domain or fragment, rat, UniProt Q62634 513-549, looked up)
chain: HDQLAGSDESEMEDEVEPPGAPPAPPPSYGATHSTVQ
notes: VGLUT1 (vesicular glutamate transporter 1), rat, amino acids 513-549 of the C-terminus (acidic cluster, first polyproline domain PP1, PEST); Cloned in the Ligand Expression Vector (Panomics/Affymetrix); also called His-PP1; His-VGLUT1 PP1; source: E. coli, purified (Ni-NTA, imidazole elution, dialysis) by the methods; soluble bacterial extract by the results and the legend

band intensity normalised to lysate (GST-Lyn-SH3 (Panomics) [7]): 0.718 a.u.
band intensity normalised to lysate [8]: 0.763 a.u.
band intensity normalised to lysate [9]: 0.183 a.u.
band intensity normalised to lysate [10]: 0.103 a.u.
band intensity normalised to lysate [11]: 0.877 a.u.
band intensity normalised to lysate [12]: 0.362 a.u.
B2: VGLUT1 from rat brain extract (natural protein, rat (endogenous in rat brain), UniProt Q62634 1-560, looked up)
chain: MEFRQEEFRKLAGRALGRLHRLLEKRQEGAETLELSADGRPVTTHTRDPPVVDCTCFGLPRRYIIAIMSGLGFCISFGIRCNLGVAIVSMVNNSTTHRGGHVVVQKAQFNWDPETVGLIHGSFFWGYIVTQIPGGFICQKFAANRVFGFAIVATSTLNMLIPSAARVHYGCVIFVRILQGLVEGVTYPACHGIWSKWAPPLERSRLATTAFCGSYAGAVVAMPLAGVLVQYSGWSSVFYVYGSFGIFWYLFWLLVSYESPALHPSISEEERKYIEDAIGESAKLMNPVTKFNTPWRRFFTSMPVYAIIVANFCRSWTFYLLLISQPAYFEEVFGFEISKVGLVSALPHLVMTIIVPIGGQIADFLRSRHIMSTTNVRKLMNCGGFGMEATLLLVVGYSHSKGVAISFLVLAVGFSGFAISGFNVNHLDIAPRYASILMGISNGVGTLSGMVCPIIVGAMTKHKTREEWQYVFLIASLVHYGGVIFYGVFASGEKQPWAEPEEMSEEKCGFVGHDQLAGSDESEMEDEVEPPGAPPAPPPSYGATHSTVQPPRPPPPVRDY
notes: VGLUT1, endogenous in rat brain; source: endogenous, detergent-solubilized rat brain extract
